The source of these data is patent publication US20020106775.

This series has as its system plasminogen.

On to “LMW-uPA-A279 (LMW-uPA with Cys279 to Ala279 replacement)”, for which the zymography entry is given as “the product shown to be active in zymography (data not shown)”.
